Reference: the supplement of paper PMC12042874
± gives the uncertainty stated by the source.

Experiment: amyloid nucleation score (Sup35N fusion, yeast selection) (log enrichment); library NNK3; higher = more nucleation; inactive = no reads after selection
Summary of the method: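 On medium lacking adenine and uracil, psi-negative yeast expressing peptides of 20 random codons fused to Sup35N were grown 7 days at 30°C after a 24-hour induction with 100 μM copper sulfate. Illumina sequencing of input and output plasmid inserts gave the reads, and sequences under 100 input reads were excluded. The nucleation score is the DiMSum log enrichment of output over input reads, centred on the mode score of non-aggregating sequences.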
With YALIQIPKYRLGCRGWTMRG the amyloid nucleation score was 0.172 ± 0.27. For LKIFKCI, the amyloid nucleation score was “inactive”. Substance EVFVLNYNWNVCHWLFVADV has an amyloid nucleation score of 1.83 ± 0.083. LTIINRFEFRQKNINGTYRK showed an amyloid nucleation score of 2.73 ± 0.068. For AYLTI, the amyloid nucleation score was “inactive”. For RVEVSSTGV, the amyloid nucleation score was “inactive”. For SMHYAQYIIIYWRMSSRVYD, the amyloid nucleation score was “inactive”. For NSGCQMFL, the amyloid nucleation score was “inactive”. LSVMLQ showed an amyloid nucleation score of 0.988 ± 0.19. In the case of FNFVYV, the amyloid nucleation score is reported as 0.062 ± 0.88. For CYPVSVQYNGV, the amyloid nucleation score was “inactive”. In the case of GYTMRG, the amyloid nucleation score is reported as “inactive”. With WNGKGLSSGTLSISRKT the amyloid nucleation score was “inactive”. Work on IYCPYVGCVMSLGTGCM yielded an amyloid nucleation score of 1.06 ± 0.19. With WGLMIWSWPYMFCTLLPASR the amyloid nucleation score was “inactive”. For VCMVEDFCCLPFDMLLYWLT, the amyloid nucleation score was “inactive”. In the case of LTGCRL, the amyloid nucleation score is reported as “inactive”. For HSSNWCSVVITLCCTLRKDY, the amyloid nucleation score was 0.748 ± 0.19. Work on KYYINVVNRRYLNYFGTWLF yielded an amyloid nucleation score of 0.617 ± 0.12. With ARLHVILCDGCHVRMCPEMG the amyloid nucleation score was “inactive”. For IIIVKCT, the amyloid nucleation score was “inactive”. For HWNCGVTNSGEFFALAVGFI, the amyloid nucleation score was “inactive”. In the case of AQALRSVPEVWGEFTRSS, the amyloid nucleation score is reported as “inactive”. For YVGTYNFICEAYALDMTEQW, the amyloid nucleation score was “inactive”. In the case of YFIMSFSLQNFMGSPLNRLG, the amyloid nucleation score is reported as “inactive”. In the case of FTSYS, the amyloid nucleation score is reported as “inactive”. Work on ISSNLLHAVWYSHEPGW yielded an amyloid nucleation score of 1.81 ± 0.061. With VPVVYGSCCKHRGICMYVL the amyloid nucleation score was “inactive”. With VTKARSHYTVSVLMDEKCMG the amyloid nucleation score was “inactive”. In the case of NDFIVECMTVESS, the amyloid nucleation score is reported as “inactive”. With VYFENSGFTTVTREACLY the amyloid nucleation score was “inactive”. For VIRLLVIAFRDHLNEVMFHK, the amyloid nucleation score was “inactive”. In the case of QTSNMVAWCLSLFRAGRPTK, the amyloid nucleation score is reported as “inactive”. In the case of DYVCYLILVLEASRRNCRSS, the amyloid nucleation score is reported as “inactive”. In the case of DRDSALWIMTVWVRGSHYTR, the amyloid nucleation score is reported as “inactive”. In the case of NTTCYIVRVMYVPHG, the amyloid nucleation score is reported as “inactive”. With DRNEVLDQNVVDSEISTVLP the amyloid nucleation score was “inactive”. With CYFVSVKLLTGVKLSHKYL the amyloid nucleation score was 1.25 ± 0.15. Substance FDGTGRLRF has an amyloid nucleation score of -0.629 ± 1.2. In the case of MRVLGLGEAWDDNGLRRLRA, the amyloid nucleation score is reported as “inactive”. For YFSRMVKVRSNI, the amyloid nucleation score was “inactive”. With SAWSTECYVMCSM the amyloid nucleation score was “inactive”. In the case of FCTFSLRHYVTKNGPVCPTK, the amyloid nucleation score is reported as “inactive”. In the case of PYKEFPNNVRPTWNQRYNVK, the amyloid nucleation score is reported as “inactive”. With YNCFTHSPWRKH the amyloid nucleation score was “inactive”. In the case of GYVVQIMFYILVVHTTWSSA, the amyloid nucleation score is reported as -0.451 ± 0.98. With HKLLGVTYYAV the amyloid nucleation score was “inactive”. In the case of RQCMKRLWDSCYKKAWIKYV, the amyloid nucleation score is reported as “inactive”. In the case of KSWVIKLSGFVETWHRMD, the amyloid nucleation score is reported as “inactive”. For RLYKKGRGPFHLTPAPRD, the amyloid nucleation score was “inactive”. Substance YRYYCWNCCELGIDGTMWVA has an amyloid nucleation score of -0.526 ± 0.45. In the case of TNCCTCVMEASGNEGIGTLN, the amyloid nucleation score is reported as 0.367 ± 0.23. In the case of NDGFQYRGHRWCLYNHL, the amyloid nucleation score is reported as “inactive”. With QCLIYLYVFVLPVLEFGMDR the amyloid nucleation score was “inactive”. For RTIFFFLDSMLIYSRAVCRL, the amyloid nucleation score was “inactive”. For GYTDRLVLNRKGGQYGGFEN, the amyloid nucleation score was “inactive”. For FTLKRLPGYSHRSLEWLPPY, the amyloid nucleation score was “inactive”. For VCDSHQ, the amyloid nucleation score was “inactive”. In the case of WTRNTKLVEIIKMYYQNVNL, the amyloid nucleation score is reported as “inactive”. Substance GYAADMIFYQGHHMKISMFR has an amyloid nucleation score of 1.08 ± 0.15. With PPLYSRYLSFNGMTKVPWIC the amyloid nucleation score was “inactive”. With VMCGNMWVYVKSLDT the amyloid nucleation score was 0.96 ± 0.11. For SKSYVEF, the amyloid nucleation score was “inactive”. For WLVFITPYLSLSCLSLINKI, the amyloid nucleation score was “inactive”. Substance KSTICACTLIMVNTPFMLSM has an amyloid nucleation score of 1.36 ± 0.11. With RYWHEASVVGFIWGKWVDVS the amyloid nucleation score was “inactive”. For SFSSRRHYNLLPFRWFFRRN, the amyloid nucleation score was “inactive”. KSPVWIQIPLMCFLLEFVLG gave an amyloid nucleation score of 0.471 ± 0.2. SFNSQSSRRVDNQRWVNLNF gave an amyloid nucleation score of 0.886 ± 0.11. In the case of SCLSNIVFFFPCQCRSMIFS, the amyloid nucleation score is reported as 1.99 ± 0.063. For VLHGVL, the amyloid nucleation score was “inactive”. With RLDGCM the amyloid nucleation score was “inactive”. For IKQRDN, the amyloid nucleation score was “inactive”. For HNKDDK, the amyloid nucleation score was “inactive”. In the case of YFIRVILPFQLTLVVIWYKF, the amyloid nucleation score is reported as “inactive”. With YSVMSNHETIYYMSVS the amyloid nucleation score was “inactive”. In the case of VHDRSLHLVGY, the amyloid nucleation score is reported as -0.841 ± 1.2. In the case of AVSTTTSMVINRLRACKYAY, the amyloid nucleation score is reported as “inactive”. With SAYTTLRDRRCSKGYNMILG the amyloid nucleation score was “inactive”. In the case of VFSRKKYRHPWMYAVTFGYC, the amyloid nucleation score is reported as “inactive”. With LWHKMSDMV the amyloid nucleation score was “inactive”. In the case of LLSDICFCYYAREIRNSGCS, the amyloid nucleation score is reported as “inactive”. Work on SCSGW yielded an amyloid nucleation score of -0.351 ± 1.1. In the case of FVEAANNSFCYESSNIT, the amyloid nucleation score is reported as “inactive”. In the case of NLLGTVIIFLRDGSS, the amyloid nucleation score is reported as 2.13 ± 0.064. Substance RLCSVGLAVYYMACSEYKMR has an amyloid nucleation score of 0.103 ± 0.29. In the case of DFSSWSFYHYPLVGQSSYTS, the amyloid nucleation score is reported as “inactive”. For GWKANWELCRVYVQWSGLNV, the amyloid nucleation score was 0.422 ± 0.38. For RLRCLYTSEISVGIGNNWVS, the amyloid nucleation score was “inactive”. In the case of VSNYTSRNNYVNCQLELTRA, the amyloid nucleation score is reported as “inactive”. With EFQGQTKSSWAYRLDKLCLP the amyloid nucleation score was “inactive”. In the case of CFMSLLNF, the amyloid nucleation score is reported as “inactive”. With IKPSMQIILWFGLERYSRAW the amyloid nucleation score was -0.308 ± 0.6. In the case of SSVYCL, the amyloid nucleation score is reported as -0.781 ± 1.3. With NSKSVSWMFMPLQAFLCLIG the amyloid nucleation score was “inactive”. Work on SGISIVIPFPRGVQMT yielded an amyloid nucleation score of -0.47 ± 1. For LLCND, the amyloid nucleation score was “inactive”. In the case of SFSCVHDDCRKLLQLRLDST, the amyloid nucleation score is reported as “inactive”. NDCRCTIFAAYIKILYKFLG showed an amyloid nucleation score of 1.13 ± 0.097. In the case of HGVWSCRWWLNNRMF, the amyloid nucleation score is reported as “inactive”. For IDVSCMQNNILRRIGFHV, the amyloid nucleation score was “inactive”. SKVGSWYDAT gave an amyloid nucleation score of -0.506 ± 1.1. Work on LIILWRQ yielded an amyloid nucleation score of 1.27 ± 0.079. For NCRFEGLDKSTS, the amyloid nucleation score was “inactive”. In the case of DSVFNL, the amyloid nucleation score is reported as “inactive”. For SYFWILRAWS, the amyloid nucleation score was “inactive”. In the case of TITLFSSWGSV, the amyloid nucleation score is reported as 0.612 ± 0.22. In the case of EAHGYVR, the amyloid nucleation score is reported as “inactive”. For LRLVTMSYWPRYLLRRKCIR, the amyloid nucleation score was “inactive”. For LESLPINNEFSMQSYTRIVI, the amyloid nucleation score was “inactive”. For RCVSFTLKIGLIFKQTPSCR, the amyloid nucleation score was “inactive”. With HPSTSTYRQRLPNCY the amyloid nucleation score was “inactive”. In the case of KGTYGFAINHHYIA, the amyloid nucleation score is reported as “inactive”. In the case of IFKKLSFL, the amyloid nucleation score is reported as “inactive”. For GHWSEKSDGTNKSYVVRSGM, the amyloid nucleation score was “inactive”. In the case of RFSTGDIWRYPDGNMFWTSL, the amyloid nucleation score is reported as “inactive”. For YIARCVVTSLVLNKTCMRIY, the amyloid nucleation score was “inactive”. With TFRICADMCCTGVR the amyloid nucleation score was 1.45 ± 0.11. With LSQVFLVMFKF the amyloid nucleation score was “inactive”. In the case of RRLCKYYLQVKSPCIGHDCQ, the amyloid nucleation score is reported as “inactive”. In the case of NYLVVLMGSTCMKVRPLGVS, the amyloid nucleation score is reported as “inactive”. With DSRMF the amyloid nucleation score was “inactive”. With VYPWFA the amyloid nucleation score was “inactive”. With AFKMVLIGFMSMVERSNVHG the amyloid nucleation score was “inactive”. In the case of WIMPLDQ, the amyloid nucleation score is reported as “inactive”. In the case of QGSYTAESTVHHWGFKMNNY, the amyloid nucleation score is reported as 0.754 ± 0.22. With CCMVVTQYYARMMVWGNRPY the amyloid nucleation score was “inactive”. In the case of WSPWHENWGLGMLQLKTSLW, the amyloid nucleation score is reported as “inactive”. In the case of FRNVGMLGSNLGFGINNDIN, the amyloid nucleation score is reported as “inactive”. For IGYKLNFCASILDFSYCKIY, the amyloid nucleation score was 1.07 ± 0.19. With ADLPCDVATNLVPLTRSSQM the amyloid nucleation score was “inactive”. With ANSNAFIQSDHIRYLLDFAM the amyloid nucleation score was 0.725 ± 0.18. For ASAEEGWQNCEK, the amyloid nucleation score was “inactive”. In the case of GAKIPELSLLMVTPINARSF, the amyloid nucleation score is reported as “inactive”. Work on DGAYYGLCMMFNVSVLMGII yielded an amyloid nucleation score of 0.063 ± 0.51. Work on VMLFY yielded an amyloid nucleation score of 0.845 ± 0.14. Work on LSFNTVDSPGRIYFRIWYGV yielded an amyloid nucleation score of 1.07 ± 0.14. With VSFNKPLKQVKGPAVTGWKE the amyloid nucleation score was “inactive”. For CLRECWCSGNTTHGSHWSTC, the amyloid nucleation score was “inactive”. In the case of VCFVWFRRWPTIPR, the amyloid nucleation score is reported as “inactive”. FGVSIVRHQVLLCGLSCISL showed an amyloid nucleation score of 1.85 ± 0.091. With QNCQVLKFRAILFNYLLFLT the amyloid nucleation score was “inactive”. In the case of RSMQFGVIYAYYHRMAG, the amyloid nucleation score is reported as “inactive”. With FTVCFVLPIAITPMMWDIWY the amyloid nucleation score was “inactive”. For MSMLKFIYFDYSMDSLHIIW, the amyloid nucleation score was “inactive”. In the case of YIEILE, the amyloid nucleation score is reported as “inactive”. With TVGTIPFWVALPSTSLNR the amyloid nucleation score was “inactive”. With SNVTRMVRFFWVEGPTEYWY the amyloid nucleation score was “inactive”. For PCNFL, the amyloid nucleation score was “inactive”. With FYCRSGVGKCYGWVTKVMRE the amyloid nucleation score was “inactive”. For TGHSQSLVVLTCWCVLFHAR, the amyloid nucleation score was “inactive”. VLIKQECSQRFFDSNLNWHF gave an amyloid nucleation score of 0.688 ± 0.33. In the case of GMCVGDLEAQTSEGTSNESW, the amyloid nucleation score is reported as “inactive”. For WQPDTVKGEVLLRVGTMLSV, the amyloid nucleation score was “inactive”. In the case of MRCQNSCRHS, the amyloid nucleation score is reported as “inactive”. In the case of LLSAMYNHPADMIAKLGKGG, the amyloid nucleation score is reported as “inactive”. With SRVLTYDT the amyloid nucleation score was “inactive”. With SIMFVCQFGGGSRNSYGCLA the amyloid nucleation score was 2.24 ± 0.078. For SGQSNDCVMDVWMDM, the amyloid nucleation score was “inactive”. In the case of TCSISIRAGLVLNPCWSDYA, the amyloid nucleation score is reported as “inactive”. For FPMCFSFHLIGQ, the amyloid nucleation score was “inactive”. For KEFAIESTVLFYTVLLKAAH, the amyloid nucleation score was “inactive”.
